Experimental data published in patent US20220098310A1 (Alexion, published 2022).
Where a chain is given by its changes, count along the chain named.

How the values were obtained:
[1] = target: T1, recombinant human ALK2 extracellular domain (Creative Biomart catalog number ACVR1-01H) (human, UniProt Q04771 21-123); experiment: SPR (Biacore), antibody captured, ALK2 ECD as analyte
T1 construct: also called ALK2 ECD; ACVR1 ECD
T1 sequence: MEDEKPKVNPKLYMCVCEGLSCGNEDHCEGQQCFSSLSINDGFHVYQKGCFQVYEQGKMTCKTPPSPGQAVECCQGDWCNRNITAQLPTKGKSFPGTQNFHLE

[2] = target: T1, recombinant human ALK2 extracellular …; experiment: SPR (Biacore), JAB0481 captured at low density on anti-mouse IgG chip, ALK2 ECD as analyte, 1:1 Langmuir fit
Description: (§1) Anti-mouse IgG was immobilized on carboxymethylated dextran BiaCore sensor chips (CMS, GE Biosciences) using a Mouse Antibody Capture Kit (GE Lifesciences product number BR100838). Two sensors were prepared; one for a “low” density of JAB0481 captured on the sensor and one with a “high” density of JAB0481 captured on the sensor. JAB0481 was diluted to 0.05 mg/ml in HEPES EDTA surfactant buffer (HBS-EP), pH 7.4 and injected onto the mouse antibody capture sensors. The volume of JAB0481 solution injected for the “low” density condition was […], and the volume that was used for the “high” density condition was 30 μL.
(§2) The ALK2 ECD was diluted in HBS-EP buffer and injected over the JAB0481 captured sensors at concentrations ranging from 2000 nM to 250 nM followed by a 300 second association period. This was followed by the injection of HBS-EP buffer and a 500 second dissociation period. Relative response deflection was plotted against time and the data were fitted to curves according to the Langmuir 1:1 binding kinetic model.
(§3) The sensorgrams for the binding of the ALK2 ECD to JAB0481 at low surface density is provided in FIG. 9, while the sensorgrams for the binding of the ALK2 ECD to JAB0481 at high surface density is provided in FIG. 10. Table 2 provides the association and dissociation rates, the dissociation constant, and Chi squared values calculated from the Biacore binding data.

[3] = target: T1, recombinant human ALK2 extracellular …; experiment: SPR (Biacore), JAB0481 captured at high density on anti-mouse IgG chip, ALK2 ECD as analyte, 1:1 Langmuir fit
Description: as §1, §2, §3

[4] = target: T2, ALK1-Fc (R&D Systems catalog number 370-AL-100) (human, UniProt P37023 22-118); experiment: bio-layer interferometry (Octet): ALK1-Fc captured on anti-human Fc tips, antibody in solution at 10 ug/mL
T2 construct: extracellular domain; Bought; also called recombinant ALK1-Fc; paralog ALK1; not shown: Fc part (loaded on anti-human Fc tips)
Description: ALK2-Fc (R&D Systems), ALK2-Fc (Sino Biological catalog number 10227-H03H), and ALK1-Fc (R&D Systems catalog number 370-AL-100) were diluted to 10 μg/mL in 1× kinetics buffer (ForteBio) and loaded onto anti-human Fc tips (ForteBio). After baseline equilibration in kinetics buffer (ForteBio), the sensors were applied to solutions of antibodies JAB0399, JAB0481, and BB5.1 (isotype control mAb) diluted to 10 μg/ml in kinetics buffer. The sensors were then applied to antibody-free kinetics buffer to measure antibody dissociation.

[5] = target: T3, mouse ALK2 expressed on the cell surface of wild-type C2C12 mouse myoblast cells (mouse, UniProt P37172 21-509); experiment: flow cytometry on wild-type C2C12 cells, antibody 2.45 to 5,000 ng/mL and 0 ng/mL, detected with AF488 donkey anti-mouse IgG
T3 construct: Endogenous ALK2 of C2C12 cells (ATCC CRL-1772); also called murine ALK2; ALK2 on C2C12 cells
T3 sequence: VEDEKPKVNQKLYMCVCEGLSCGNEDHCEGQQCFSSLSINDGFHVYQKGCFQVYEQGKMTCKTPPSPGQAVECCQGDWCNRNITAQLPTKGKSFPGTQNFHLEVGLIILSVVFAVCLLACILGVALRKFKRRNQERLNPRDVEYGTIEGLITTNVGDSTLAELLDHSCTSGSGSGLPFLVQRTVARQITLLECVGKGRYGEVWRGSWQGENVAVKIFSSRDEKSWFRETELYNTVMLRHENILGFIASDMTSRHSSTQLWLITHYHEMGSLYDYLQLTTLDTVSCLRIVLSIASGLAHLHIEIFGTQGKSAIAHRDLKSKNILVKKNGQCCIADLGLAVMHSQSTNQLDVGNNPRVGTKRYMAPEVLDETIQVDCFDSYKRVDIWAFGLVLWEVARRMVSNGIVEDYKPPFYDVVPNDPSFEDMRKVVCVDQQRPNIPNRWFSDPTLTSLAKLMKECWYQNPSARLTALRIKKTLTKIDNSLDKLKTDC
Description: Anti-ALK2 antibodies were evaluated for binding to ALK2 expressed on the cell surface of mouse myoblast cells (C2C12; ATCC CRL-1772) by flow cytometry. The expression of ALK2 in wild-type C2C12 cells was confirmed by RT-qPCR and by observing the binding of commercially available polyclonal anti-ALK2 antibodies to the cells by flow cytometry (data not shown). […] Loss of ALK2 expression was verified by flow cytometry and genomic sequencing (data not shown).
Wild-type and ALK2 knock-out C2C12 cells were detached from culture flasks using AssayComplete™ Cell Detachment Reagent (DiscoverX) which was used to maintain intact cell membrane morphology. Cells were washed twice with PBS and then re-suspended in PBS. […] Cells were washed once in FACS buffer (5% bovine serum albumin, […] in PBS) re-suspended in blocking buffer (6% BSA in PBS) and incubated on wet ice for 15 minutes. The binding of the anti-ALK2 antibodies to cells was detected with a 1:100 dilution of Alexa Fluor488-conjugated donkey anti-mouse IgG (ThermoFisher catalog number A21202). Cells were then washed twice in FACS buffer, re-suspended in FACS buffer and the binding of anti-ALK2 antibodies determined by flow cytometry using a DxP6 flow cytometer (Cytek).

[6] = target: T3, mouse ALK2 expressed on the cell …; experiment: cell-based or functional assay

T2 sequence (P37023 22-118): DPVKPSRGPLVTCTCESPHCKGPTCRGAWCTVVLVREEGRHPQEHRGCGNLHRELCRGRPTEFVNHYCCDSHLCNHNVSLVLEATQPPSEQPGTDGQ

B1: JAB0481 (antibody, mouse IgG1, kappa)
heavy: EVQLQQSGAELVRPGASVRLSCTASGFNIKDSLMHWVKQRPEQGLEWIGWIDPEDGETKYAPNFQDKATITAVTSSNTAYLQLSSLTSEDSAIYYCARYTSDYYTMDYWGQGTSVTVSSAKTTPPSVYPLAPGSAAQTNSMVTLGCLVKGYFPEPVTVTWNSGSLSSGVHTFPAVLQSDLYTLSSSVTVPSSTWPSQTVTCNVAHPASSTKVDKKIVPRDCGCKPCICTVPEVSSVFIFPPKPKDVLTITLTPKVTCVVVDISKDDPEVQFSWFVDDVEVHTAQTKPREEQINSTFRSVSELPIMHQDWLNGKEFKCRVNSAAFPAPIEKTISKTKGRPKAPQVYTIPPPKEQMAKDKVSLTCMITNFFPEDITVEWQWNGQPAENYKNTQPIMDTDGSYFVYSKLNVQKSNWEAGNTFTCSVLHEGLHNHHTEKSLSHSPGK
light: DIQMTQSPASQSASLGESVTFTCLASQTIGTWLAWYQQKPGKSPQLLIYAATSLADGVPSRFSGSGSGTKFSFKISSLQAEDFASYYCQQLYSTPWTFGGGTKLEIKRADAAPTVSIFPPSSEQLTSGGASVVCFLNNFYPKDINVKWKIDGSERQNGVLNSWTDQDSKDSTYSMSSTLTLTKDEYERHNSYTCEATHKTSTSPIVKSFNRNEC
notes: Murine IgG1/kappa; also called antibody JAB0481; parent mAb JAB0481
Kd [1]: 132 nM
koff [1]: 0.00516 s⁻¹
kon [1]: 39100 M⁻¹ s⁻¹
Kd [2]: 155 nM
koff [2]: 0.00833 s⁻¹
kon [2]: 53600 M⁻¹ s⁻¹
Kd [3]: 72.7 nM
koff [3]: 0.00467 s⁻¹
kon [3]: 64200 M⁻¹ s⁻¹
binding result [4]: no binding (tested: 10 ug/mL)
binding result [5]: binds

B2: JAB0399 (antibody, mouse IgG1, kappa)
heavy: B1 heavy with S134F
light: B1 light
notes: Murine IgG1/kappa mAb from phage library; also called antibody JAB0399; mAb JAB0399
binding result [4]: no binding (tested: 10 ug/mL)

B3: JAB0505 (antibody, mouse IgG1, kappa, V domains shown)
VH: EVQLQQSGAELVRPGASVRLSCTASGFNIKDSLMHWVKQRPEQGLEWIGWIDPEDGETRYAPNFQDKATITAVTSSNTAYLQLSSLTSEDSAIYYCARYTSRYYTMEYWGQGTSVTVSS
VL: DIQMTQSPASQSASLGESVTFTCLASQTIGTWLAWYQQKPGKSPQLLIYAATSLADGVPSRFSGSGSGTKFSFKISSLQAEDFASYYCQQLYWTPWTFGGGTKLEIKR
notes: also called antibody JAB0505
Kd [1]: 20.8 nM
koff [1]: 0.000839 s⁻¹
kon [1]: 40300 M⁻¹ s⁻¹
IC50, BRE-luciferase reporter assay in C2C12 cells stimulated with BMP9 [6]: 0.139 nM

B4: JAB0501 (antibody, mouse IgG1, kappa, V domains shown)
VH: B3 VH with R59K, D66S, R102P, E107D
VL: B3 VL with L91V, W93S
Kd [1]: 24.5 nM
koff [1]: 0.000929 s⁻¹
kon [1]: 37900 M⁻¹ s⁻¹
IC50, BRE-luciferase reporter assay in C2C12 cells stimulated with BMP9 [6]: 0.204 nM
